Experimental data: publication PMC8103107, “Myeloid‐resident neuropilin‐1 promotes choroidal neovascularization while mitigating inflammation” (EMBO Molecular Medicine, 2021)

T1: recombinant NRP1-derived trap consisting of the extracellular domain of NRP1 (UniProt O14786 22-856)
T1 construct: also called soluble NRP1; soluble receptor Neuropilin-1; source: purified recombinant
T1 sequence (looked up): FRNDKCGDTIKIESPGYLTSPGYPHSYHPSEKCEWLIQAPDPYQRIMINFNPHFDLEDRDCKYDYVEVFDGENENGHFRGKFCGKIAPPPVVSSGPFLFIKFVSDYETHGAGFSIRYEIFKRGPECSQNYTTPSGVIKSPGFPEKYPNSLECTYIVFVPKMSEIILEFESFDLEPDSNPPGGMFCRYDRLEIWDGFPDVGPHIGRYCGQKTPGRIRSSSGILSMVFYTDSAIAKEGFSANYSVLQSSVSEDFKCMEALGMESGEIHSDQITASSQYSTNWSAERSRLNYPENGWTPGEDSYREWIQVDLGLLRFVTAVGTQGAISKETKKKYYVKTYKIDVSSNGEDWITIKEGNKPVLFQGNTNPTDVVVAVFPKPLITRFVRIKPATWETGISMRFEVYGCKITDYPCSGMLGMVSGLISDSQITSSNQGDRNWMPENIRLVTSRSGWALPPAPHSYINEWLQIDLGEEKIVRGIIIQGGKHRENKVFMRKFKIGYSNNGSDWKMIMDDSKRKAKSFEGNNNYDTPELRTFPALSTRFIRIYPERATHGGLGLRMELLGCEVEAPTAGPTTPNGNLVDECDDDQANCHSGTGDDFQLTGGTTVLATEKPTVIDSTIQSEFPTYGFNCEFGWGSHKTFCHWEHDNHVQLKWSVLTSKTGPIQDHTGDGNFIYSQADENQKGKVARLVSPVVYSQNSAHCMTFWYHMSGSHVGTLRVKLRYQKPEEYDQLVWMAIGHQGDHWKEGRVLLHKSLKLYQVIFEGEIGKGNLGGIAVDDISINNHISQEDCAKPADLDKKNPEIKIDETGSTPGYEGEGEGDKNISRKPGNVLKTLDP

B1: Semaphorin 3A (ligand, UniProt Q14563 21-771, looked up)
chain: NYQNGKNNVPRLKLSYKEMLESNNVITFNGLANSSSYHTFLLDEERSRLYVGAKDHIFSFDLVNIKDFQKIVWPVSYTRRDECKWAGKDILKECANFIKVLKAYNQTHLYACGTGAFHPICTYIEIGHHPEDNIFKLENSHFENGRGKSPYDPKLLTASLLIDGELYSGTAADFMGRDFAIFRTLGHHHPIRTEQHDSRWLNDPKFISAHLISESDNPEDDKVYFFFRENAIDGEHSGKATHARIGQICKNDFGGHRSLVNKWTTFLKARLICSVPGPNGIDTHFDELQDVFLMNFKDPKNPVVYGVFTTSSNIFKGSAVCMYSMSDVRRVFLGPYAHRDGPNYQWVPYQGRVPYPRPGTCPSKTFGGFDSTKDLPDDVITFARSHPAMYNPVFPMNNRPIVIKTDVNYQFTQIVVDRVDAEDGQYDVMFIGTDVGTVLKVVSIPKETWYDLEEVLLEEMTVFREPTAISAMELSTKQQQLYIGSTAGVAQLPLHRCDIYGKACAECCLARDPYCAWDGSACSRYFPTAKRRTRRQDIRNGDPLTHCSDLHHDNHHGHSPEERIIYGVENSSTFLECSPKSQRALVYWQFQRRNEERKEEIRVDDHIIRTDQGLLLRSLQQKDSGNYLCHAVEHGFIQTLLKVTLEVIDTEHLEELLHKDDDGDGSKTKEMSNSMTPSQKVWYRDFMQLINHPNLNTMDEFCEQVWKRDRKQRRQRPGHTPGNSNKWKHLQENKKGRNRRTHEFERAPRSV
notes: Semaphorin 3A (SEMA3A), injected as analyte in SPR; also called SEMA3A; Sema3A
B2: vascular endothelial growth factor A (ligand)
chain: APMAEGGGQNHHEVVKFMDVYQRSYCHPIETLVDIFQEYPDEIEYIFKPSCVPLMRCGGCCNDEGLECVPTEESNITMQIMRIKPHQGQHIGEMSFLQHNKCECRPKKDRARQENPCGPCSERRKHLFVQDPQTCKCSCKNTDSRCKARQLELNERTCRCDKPRR
modifications: Assumed to be VEGF165, the customary recombinant product, because the isoform is not printed. Mature residues 1-165 equal entry residues 207-395 with the exon 6a region 321-345 replaced by the …

Target: T1, recombinant NRP1-derived trap …
Assay: SPR; Biacore T200; trap immobilised by amine coupling on a CM4 chip (100-150 RU); SEMA3A or VEGF-A injected at 12.5-100 nM, 40 ul/min, PBS with 0.025% (v/v) Tween-20; global fit to a one-site Langmuir binding model
Conditions: both partners purified

| Binder | Kd [nM] |
| --- | --- |
| B1 | 0.67 |
| B2 | 4.32 |
